Results published in article PMC5512576.

Molecular target: BF520 Env 637K (HIV-1)

PGT151 (antibody) gave a maximum percent neutralization, TZM-bl pseudovirus neutralization by PGT151 of 59%.
